PMC4660199
Substitutions are numbered along the chain they refer to. Numbers in names are those of the source. Where no end group is shown, it is not given here.

B1: A3CT K457A/R458A (domain or fragment)
chain: DENASKIISAGRAKRSIAQPDDAGERFRQLKEQEKRSKKNKAVAKDTVELVEESQSESEEGSDDEEEEAREGALASSTTSKPLPEVGQRRSKRSAAKRTV
B2: A3CT K459A/R460A (domain or fragment)
chain: B1 chain with A95K, A96R, K97A, R98A

Molecular target: full-length cpSRP43 (UniProt O22265)
Test: ITC; VP-ITC, 20 °C, 20 mM Hepes (pH 7.5), 150 mM NaCl, 5 mM MgCl2, 0.25 mM TCEP; 0.01–0.1 mM in the cell, 0.1–1.0 mM in the syringe; duplicate or triplicate

Compared with GALASSTTSKPLPEVGQRRSKRSKRKRT (also: 15N,13C labelled where it is the observed NMR partner) [A3CT IV peptide], B1 is 2.9-fold higher in Kd: 15 µM for the first, 44 µM for the second.

B2 was tested, and the Kd was 20 µM.
